What all share (experiment): multiplex microsphere immunoassay
Assay [1] deals with T1, GI.2 VLP (norovirus Hu/GI.2/Jingzhou/2013401/CHN, UniProt Q04542 1-546).
T1 construct: also called GI.2 Jingzhou
T1 chain: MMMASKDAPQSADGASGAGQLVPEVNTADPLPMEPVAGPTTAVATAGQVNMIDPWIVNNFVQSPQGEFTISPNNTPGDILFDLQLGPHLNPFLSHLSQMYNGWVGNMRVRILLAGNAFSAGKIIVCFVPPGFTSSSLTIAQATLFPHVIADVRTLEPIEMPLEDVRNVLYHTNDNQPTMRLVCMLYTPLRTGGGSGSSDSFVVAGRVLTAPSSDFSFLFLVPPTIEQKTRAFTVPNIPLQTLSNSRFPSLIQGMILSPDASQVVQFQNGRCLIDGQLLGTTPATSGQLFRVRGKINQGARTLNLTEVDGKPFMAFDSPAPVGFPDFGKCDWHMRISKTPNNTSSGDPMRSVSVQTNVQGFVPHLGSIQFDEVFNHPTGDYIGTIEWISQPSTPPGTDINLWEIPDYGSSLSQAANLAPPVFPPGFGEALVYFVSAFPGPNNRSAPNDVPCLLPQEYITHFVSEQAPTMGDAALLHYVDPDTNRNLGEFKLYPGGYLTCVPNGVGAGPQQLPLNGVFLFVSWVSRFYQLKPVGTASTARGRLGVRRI

Assay [2] has as its target T2, GI.3 VLP (norovirus Hu/GI.3/JKPG_883/SWE/2007).
T2 construct: also called GI.3 Sweden
T2 chain: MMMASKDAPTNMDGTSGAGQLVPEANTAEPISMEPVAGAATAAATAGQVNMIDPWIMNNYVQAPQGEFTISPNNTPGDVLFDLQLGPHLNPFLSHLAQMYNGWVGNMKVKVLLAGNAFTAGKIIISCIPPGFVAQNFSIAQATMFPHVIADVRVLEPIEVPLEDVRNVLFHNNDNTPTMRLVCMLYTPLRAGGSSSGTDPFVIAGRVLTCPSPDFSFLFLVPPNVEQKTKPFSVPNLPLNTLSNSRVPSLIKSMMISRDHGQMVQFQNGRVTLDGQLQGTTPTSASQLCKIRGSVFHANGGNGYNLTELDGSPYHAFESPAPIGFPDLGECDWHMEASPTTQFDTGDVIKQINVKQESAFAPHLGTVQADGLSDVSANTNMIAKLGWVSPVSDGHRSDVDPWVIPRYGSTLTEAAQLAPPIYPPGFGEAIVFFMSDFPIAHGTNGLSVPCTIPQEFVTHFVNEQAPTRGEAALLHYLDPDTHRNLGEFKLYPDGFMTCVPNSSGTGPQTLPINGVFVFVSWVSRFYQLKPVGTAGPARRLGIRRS

For assay [3], the target named is T3, GI.5 VLP (norovirus …).
T3 construct: also called GI.5 Siklos
T3 chain: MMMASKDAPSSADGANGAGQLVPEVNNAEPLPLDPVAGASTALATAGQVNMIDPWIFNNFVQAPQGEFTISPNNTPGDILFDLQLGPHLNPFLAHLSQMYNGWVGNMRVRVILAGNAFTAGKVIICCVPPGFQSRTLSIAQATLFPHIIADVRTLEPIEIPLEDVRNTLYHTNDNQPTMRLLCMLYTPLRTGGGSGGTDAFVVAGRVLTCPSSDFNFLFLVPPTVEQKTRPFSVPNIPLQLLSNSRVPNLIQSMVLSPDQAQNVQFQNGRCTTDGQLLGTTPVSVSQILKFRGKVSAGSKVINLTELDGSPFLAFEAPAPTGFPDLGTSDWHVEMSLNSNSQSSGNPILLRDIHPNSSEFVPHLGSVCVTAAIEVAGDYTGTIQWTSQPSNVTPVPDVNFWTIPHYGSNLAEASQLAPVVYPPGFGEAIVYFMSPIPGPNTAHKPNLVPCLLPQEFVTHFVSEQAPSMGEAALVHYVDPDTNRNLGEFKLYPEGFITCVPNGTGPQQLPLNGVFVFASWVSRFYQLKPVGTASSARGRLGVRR

For assay [4], the target named is T4, GI.4 VLP (norovirus Hu/GI.4/1643/2008/US).
T4 construct: also called GI.4 US
T4 chain: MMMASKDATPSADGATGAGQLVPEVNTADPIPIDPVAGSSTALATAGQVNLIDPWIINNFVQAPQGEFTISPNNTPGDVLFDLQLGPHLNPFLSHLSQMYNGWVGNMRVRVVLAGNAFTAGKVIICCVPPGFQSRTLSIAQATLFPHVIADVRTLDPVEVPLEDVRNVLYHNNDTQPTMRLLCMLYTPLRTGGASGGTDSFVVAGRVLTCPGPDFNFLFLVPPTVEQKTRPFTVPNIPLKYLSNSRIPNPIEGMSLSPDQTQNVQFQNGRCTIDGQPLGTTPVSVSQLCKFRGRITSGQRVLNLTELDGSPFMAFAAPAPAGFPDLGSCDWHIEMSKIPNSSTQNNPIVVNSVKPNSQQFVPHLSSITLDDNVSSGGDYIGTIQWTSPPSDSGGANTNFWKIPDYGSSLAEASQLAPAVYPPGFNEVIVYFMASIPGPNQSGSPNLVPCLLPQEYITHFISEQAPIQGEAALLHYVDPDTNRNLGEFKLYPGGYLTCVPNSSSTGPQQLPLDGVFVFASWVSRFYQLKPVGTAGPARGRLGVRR

The target of assay [5] is T5, GI.7 VLP (norovirus Hu/GI.7/Providence191/2010/USA).
T5 construct: also called GI.7 Providence
T5 chain: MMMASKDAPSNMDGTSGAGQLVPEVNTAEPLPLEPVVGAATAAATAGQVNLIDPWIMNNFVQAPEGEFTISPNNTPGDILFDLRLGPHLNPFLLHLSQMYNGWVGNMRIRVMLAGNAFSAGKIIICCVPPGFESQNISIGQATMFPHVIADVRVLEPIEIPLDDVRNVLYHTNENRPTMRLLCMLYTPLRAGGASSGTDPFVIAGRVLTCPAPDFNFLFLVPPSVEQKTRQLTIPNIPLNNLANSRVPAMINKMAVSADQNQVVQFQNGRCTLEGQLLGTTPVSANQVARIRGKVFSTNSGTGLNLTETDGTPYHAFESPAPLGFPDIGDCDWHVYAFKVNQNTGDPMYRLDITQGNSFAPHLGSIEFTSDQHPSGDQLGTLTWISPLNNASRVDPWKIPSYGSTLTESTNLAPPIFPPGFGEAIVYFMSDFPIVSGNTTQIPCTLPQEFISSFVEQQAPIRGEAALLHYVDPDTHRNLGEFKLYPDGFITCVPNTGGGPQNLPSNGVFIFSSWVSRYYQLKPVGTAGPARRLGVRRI

Assay [6] deals with T6, GI.6 VLP (norovirus Hu/GI.6/TCH-099/USA/2003).
T6 construct: also called GI.6 USA
T6 chain: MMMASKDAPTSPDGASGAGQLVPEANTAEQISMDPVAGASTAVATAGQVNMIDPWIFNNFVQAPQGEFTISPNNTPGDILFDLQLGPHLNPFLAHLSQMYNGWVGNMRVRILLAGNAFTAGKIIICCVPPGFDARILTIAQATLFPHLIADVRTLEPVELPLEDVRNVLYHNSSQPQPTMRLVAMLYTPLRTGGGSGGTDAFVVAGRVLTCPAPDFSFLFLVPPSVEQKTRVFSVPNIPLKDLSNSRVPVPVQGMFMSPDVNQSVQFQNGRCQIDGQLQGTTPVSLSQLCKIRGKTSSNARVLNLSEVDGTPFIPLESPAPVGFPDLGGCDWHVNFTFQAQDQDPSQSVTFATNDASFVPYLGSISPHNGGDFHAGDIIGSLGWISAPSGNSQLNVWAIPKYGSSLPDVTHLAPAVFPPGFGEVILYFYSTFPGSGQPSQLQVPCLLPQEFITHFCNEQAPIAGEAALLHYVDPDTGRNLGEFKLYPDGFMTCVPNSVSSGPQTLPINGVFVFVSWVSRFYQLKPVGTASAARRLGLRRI

B1: human mAb 1227 (antibody, V domains shown)
VH: QVQLVQSGGGMVQPGGSLSLSCAASGFTLSNYAMTWVRQAPGKGLEWVSSIGGSGGTTYYADSVKGRFTISRDSSMNTLYLQMSNLRAGDTAVYYCAKDKTRTLRLGYSGMDVWGQGTTVTVSS
VL: DIRLTQSPSSLSASVGDRVTITCRASQSISSYLNWYQQKPGKAPDLLIYGASSLQSGVPSRFSGSGSGTDFTLTISSLQPEDFGNYYCQQSFSTPRTFGQGTKVEL
notes: also called A1227
On to B1, for which the EC50 (usually the concentration at which the effect is half-maximal) is 2 ng/mL in assay [1]; 2 ng/mL in assay [2]; 1 ng/mL in assay [3]; 2 ng/mL in assay [4]; 21 ng/mL in assay [5]; 2 ng/mL in assay [6].

The record behind these values is patent US20240402174A1 (Takeda / Millennium, published 2024).
